Source: paper PMC6400186, “Structure of mammalian plasma fetuin-B and its mechanism of selective metallopeptidase inhibition” (IUCrJ, 2019)

Tests used:
Assay in all cases: enzyme inhibition assay (fluorogenic substrate), Ki by Morrison's equation; fetuin-B variant titrated against enzyme; 37°C, 150 mM sodium chloride, 50 mM Tris-HCl pH 7.4, 0.01% Brij 35, triplicate; enzyme and substrate 1.0 nM and 195 µM for astacin, 0.5 nM and 26 µM for meprin β, 0.7 nM and 26 µM for ovastacin
Conditions in all cases: both partners purified
crayfish astacin = biological target: T1, crayfish astacin (European freshwater crayfish Astacus …, UniProt P07584 50-251)
T1 construct: astacin, Astacus astacus, UniProt P07584; Carries a catalytic zinc ion; also called archetypal astacin; source: purified from the digestive fluid of the European freshwater crayfish Astacus astacus L

human meprin β = biological target: T2, human meprin β (human, UniProt Q16820 62-652)
T2 sequence (looked up): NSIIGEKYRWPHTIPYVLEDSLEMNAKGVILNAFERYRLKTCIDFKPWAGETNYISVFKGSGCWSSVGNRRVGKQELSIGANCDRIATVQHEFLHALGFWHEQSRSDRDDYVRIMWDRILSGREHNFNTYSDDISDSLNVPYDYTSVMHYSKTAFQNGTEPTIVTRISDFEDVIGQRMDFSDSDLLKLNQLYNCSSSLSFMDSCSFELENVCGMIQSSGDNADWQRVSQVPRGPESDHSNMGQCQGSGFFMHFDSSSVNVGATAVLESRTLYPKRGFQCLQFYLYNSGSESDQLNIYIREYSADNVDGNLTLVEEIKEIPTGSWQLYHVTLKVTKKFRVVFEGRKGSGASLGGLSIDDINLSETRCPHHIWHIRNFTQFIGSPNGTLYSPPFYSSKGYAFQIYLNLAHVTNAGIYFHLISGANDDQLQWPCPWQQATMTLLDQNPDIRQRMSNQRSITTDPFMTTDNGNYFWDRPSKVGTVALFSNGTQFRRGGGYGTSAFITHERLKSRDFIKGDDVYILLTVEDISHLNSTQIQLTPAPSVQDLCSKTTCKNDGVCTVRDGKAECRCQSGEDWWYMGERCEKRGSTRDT

mouse ovastacin = biological target: T3, mouse ovastacin (mouse, UniProt Q6HA09 85-435)
T3 sequence (looked up): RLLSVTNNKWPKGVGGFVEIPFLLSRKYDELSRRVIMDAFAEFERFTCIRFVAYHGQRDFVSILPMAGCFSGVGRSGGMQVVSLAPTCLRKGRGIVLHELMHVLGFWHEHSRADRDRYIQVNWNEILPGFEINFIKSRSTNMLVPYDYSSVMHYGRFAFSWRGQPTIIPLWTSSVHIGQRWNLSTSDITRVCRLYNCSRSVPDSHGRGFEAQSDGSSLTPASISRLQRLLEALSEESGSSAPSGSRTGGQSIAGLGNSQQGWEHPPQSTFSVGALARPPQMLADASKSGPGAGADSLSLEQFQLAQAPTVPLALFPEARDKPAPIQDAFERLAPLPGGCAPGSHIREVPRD

T1 sequence (P07584 50-251): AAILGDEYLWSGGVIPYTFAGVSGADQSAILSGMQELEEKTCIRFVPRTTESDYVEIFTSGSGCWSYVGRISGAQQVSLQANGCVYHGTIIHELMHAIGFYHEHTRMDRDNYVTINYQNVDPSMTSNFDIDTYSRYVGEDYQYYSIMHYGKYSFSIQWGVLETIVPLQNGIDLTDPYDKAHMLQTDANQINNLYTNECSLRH

B1: mouse fetuin-B (natural protein, UniProt Q9QXC1 19-388, looked up)
chain: RSPPAPPLPQRPLSPLHPLGCNDSEVLAVAGFALQNINRDQKDGYMLSLNRVHDVREHYQEDMGSLFYLTLDVLETDCHVLSRKAQKDCKPRMFYESVYGQCKAMFHINKPRRVLYLPAYNCTLRPVSKRKTHTTCPDCPSPIDLSNPSALEAATESLAKFNSKSPSKKYELVKVTKAMNQWVSGPAYYVEYLIKEAPCTKSQASCSLQHSDSEPVGICQGSTVQSSLRHVPLIQPVEKSVTVTCEFFESQAQVPGDENPAVTQGPQKLPQKNTAPTSSPSVTAPRGSIQHLPELDDEKPEESKGGSPEEAFPVQLDLTTNPQGDTLDVSFLYLEPGDKKLVVLPFPGKEQRSAECPGPEKENNPLVLPP
modifications: N-glycans at N40 and N139
notes: mouse fetuin-B, UniProt Q9QXC1; residues R29-P388 (molecule B) and Q28-P388 (molecule D) are modelled in the complex; also called mFB; murine fetuin-B; source: baculovirus-transduced High Five cells, purified (Ni-NTA); not shown: His6, C-terminal, kept
Ki (crayfish astacin): 0.1 nM | Ki (human meprin β): 0.081 nM | Ki (mouse ovastacin): 0.046 nM

B2: mouse fetuin-B D156A (natural protein, UniProt Q9QXC1 19-388, looked up)
chain: RSPPAPPLPQRPLSPLHPLGCNDSEVLAVAGFALQNINRDQKDGYMLSLNRVHDVREHYQEDMGSLFYLTLDVLETDCHVLSRKAQKDCKPRMFYESVYGQCKAMFHINKPRRVLYLPAYNCTLRPVSKRKTHTTCPACPSPIDLSNPSALEAATESLAKFNSKSPSKKYELVKVTKAMNQWVSGPAYYVEYLIKEAPCTKSQASCSLQHSDSEPVGICQGSTVQSSLRHVPLIQPVEKSVTVTCEFFESQAQVPGDENPAVTQGPQKLPQKNTAPTSSPSVTAPRGSIQHLPELDDEKPEESKGGSPEEAFPVQLDLTTNPQGDTLDVSFLYLEPGDKKLVVLPFPGKEQRSAECPGPEKENNPLVLPP
notes: also called mFB_(D156A); source: ExpiCHO-S cells, purified (Ni-NTA)
loss of inhibitory potency (change of Ki) against wild-type mouse fetuin-B (crayfish astacin): ~2 orders of magnitude | loss of inhibitory potency (change of Ki) against wild-type mouse fetuin-B (human meprin β): ~2 orders of magnitude | loss of inhibitory potency (change of Ki) against wild-type mouse fetuin-B (mouse ovastacin): ~4 orders of magnitude

B3: mouse fetuin-B P155A (natural protein, UniProt Q9QXC1 19-388, looked up)
chain: RSPPAPPLPQRPLSPLHPLGCNDSEVLAVAGFALQNINRDQKDGYMLSLNRVHDVREHYQEDMGSLFYLTLDVLETDCHVLSRKAQKDCKPRMFYESVYGQCKAMFHINKPRRVLYLPAYNCTLRPVSKRKTHTTCADCPSPIDLSNPSALEAATESLAKFNSKSPSKKYELVKVTKAMNQWVSGPAYYVEYLIKEAPCTKSQASCSLQHSDSEPVGICQGSTVQSSLRHVPLIQPVEKSVTVTCEFFESQAQVPGDENPAVTQGPQKLPQKNTAPTSSPSVTAPRGSIQHLPELDDEKPEESKGGSPEEAFPVQLDLTTNPQGDTLDVSFLYLEPGDKKLVVLPFPGKEQRSAECPGPEKENNPLVLPP
notes: also called mFB_(P155A); source: ExpiCHO-S cells, purified (Ni-NTA)
loss of inhibitory potency (change of Ki) against wild-type mouse fetuin-B (crayfish astacin): ~1 orders of magnitude | loss of inhibitory potency (change of Ki) against wild-type mouse fetuin-B (human meprin β): ~1 orders of magnitude | loss of inhibitory potency (change of Ki) against wild-type mouse fetuin-B (mouse ovastacin): ~2 orders of magnitude

B4: mouse fetuin-B P155A+D156A (natural protein, UniProt Q9QXC1 19-388, looked up)
chain: RSPPAPPLPQRPLSPLHPLGCNDSEVLAVAGFALQNINRDQKDGYMLSLNRVHDVREHYQEDMGSLFYLTLDVLETDCHVLSRKAQKDCKPRMFYESVYGQCKAMFHINKPRRVLYLPAYNCTLRPVSKRKTHTTCAACPSPIDLSNPSALEAATESLAKFNSKSPSKKYELVKVTKAMNQWVSGPAYYVEYLIKEAPCTKSQASCSLQHSDSEPVGICQGSTVQSSLRHVPLIQPVEKSVTVTCEFFESQAQVPGDENPAVTQGPQKLPQKNTAPTSSPSVTAPRGSIQHLPELDDEKPEESKGGSPEEAFPVQLDLTTNPQGDTLDVSFLYLEPGDKKLVVLPFPGKEQRSAECPGPEKENNPLVLPP
notes: also called mFB_(P155A,D156A); double mutant; source: ExpiCHO-S cells, purified (Ni-NTA)
loss of inhibitory potency (change of Ki) against wild-type mouse fetuin-B (crayfish astacin): 2 orders of magnitude | loss of inhibitory potency (change of Ki) against wild-type mouse fetuin-B (human meprin β): 4 orders of magnitude | loss of inhibitory potency (change of Ki) against wild-type mouse fetuin-B (mouse ovastacin): 4 orders of magnitude

B5: chimeric mutant mFBABA (other, mouse, UniProt P29699 19-136, looked up)
chain: APQGTGLGFRELACDDPEAEQVALLAVDYLNNHLLQGFKQVLNQIDKVKVWSRRPFGVVYEMEVDTLETTCHALDPTPLANCSVRQLTEHAVEGDCDFHILKQDGQFRVMHTQCHSTPVSKRKTHTTCPDCPSPIDLSNPSALEAATESLAKFNSKSPSKKYELVKVTKAMNQWVSGPAYYVEYLIKEAPCTKSQASCSLQHSDSEPVGICQGSTVQSSLRHVPLIQPVEKSVTVTCEFFESQPQPANANAVGPVPTANAALPADPPASVVVGPVVVPRGLSDHRTYHDLRHAFSPVASVESASGETLHSPKVGQPGAAGPVSPMCPGRIRHFKI
notes: mouse fetuin-A CY1 domain, UniProt P29699, residues A19-P136; mouse fetuin-B CY2 domain with linker, UniProt Q9QXC1, residues V145-Q269; mouse fetuin-A CTR domain, UniProt P29699, residues P254-I345; also called chimera of mouse fetuin-B with CY1 and CTR from mouse fetuin-A; source: adenovirus-infected COS-7 cells, purified (Ni-NTA)
loss of inhibitory potency (change of Ki) against wild-type mouse fetuin-B (crayfish astacin): > 3 orders of magnitude | loss of inhibitory potency (change of Ki) against wild-type mouse fetuin-B (human meprin β): > 4 orders of magnitude | loss of inhibitory potency (change of Ki) against wild-type mouse fetuin-B (mouse ovastacin): > 4 orders of magnitude
